This assay addresses T1, GPVIex (nonglycosylated human GPVI extracellular domain residues 1 to 183) (Homo sapiens).
T1 chain: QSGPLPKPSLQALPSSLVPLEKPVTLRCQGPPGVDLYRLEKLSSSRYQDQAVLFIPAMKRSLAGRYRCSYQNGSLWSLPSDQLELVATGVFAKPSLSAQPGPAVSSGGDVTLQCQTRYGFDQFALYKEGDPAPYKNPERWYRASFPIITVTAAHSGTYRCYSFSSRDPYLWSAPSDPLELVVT
In words: crystal structure.

B1: Glenzocimab (Fab, V domains shown)
VH: QVQLVQSGAEVKKPGASVKVSCKASGYTFTSYNMHWVRQAPGQGLEWMGGIYPGNGDTSYNQKFQGRVTMTRDTSTSTVYMELSSLRSEDTAVYYCARGTVVGDWYFDVWGQGTLVTVSS
VL: DIQMTQSPSSLSASVGDRVTITCRSSQSLENSNGNTYLNWYQQKPGKAPKLLIYRVSNRFSGVPSRFSGSGSGTDFTFTISSLQPEDIATYYCLQLTHVPWTFGQGTKVEIT
Consider B1, for which the binding result is “binds”.

For the origin of these results see article PMC10119634 (Blood Advances, 2022).
